Experiment [1] addresses Xenopus cyclase-associated protein 1 (Xenopus laevis (endogenous in oocytes)). Briefly: SEC-MALS + AUC.
In experiment [2] the target is actin from Xenopus laevis oocytes (Xenopus laevis (endogenous in oocytes)) (UniProt O93400). Briefly: SEC-MALS + AUC.

For “Xenopus cyclase-associated protein 1 (natural protein)”, the stoichiometry N (XCAP1 molecules in the complex) in experiment [1] came out at 4. Moreover, the stoichiometry N (XCAP1 per actin (4:4)) in experiment [2] was determined as 1.

(Values after paper doi:10.1101/2020.10.02.323899.)
